Positions count from the first letter of the chain named. In names and notes the source's numbering stands.
Tests used:
Assay type in all cases: biochemical, Trichoderma reesei
[1] = substrate: [H][C@@]1(O[C@H]2[C@H](O)[C@@H](O)[C@H](Oc3ccc([N+](=O)[O-])cc3)O[C@@H]2CO)O[C@H](CO)[C@H](O)[C@H](O)[C@H]1O; test: pNP-Lactopyranoside (pNP-L) assay, kinetics, TrCel7A 1-1d; details: other: TrCel7A 1-1d, 45° C., 30 minutes, pNP-L 8 mM-0.133 mM
Text: (§1) The wild-type (wt) TrCel7A sequence was aligned with all the high-pNP-L activity sequences in order to identify the corresponding positions of mutations in TrCel7A. Without being bound by theory, these mutations should result in improving pNP-L activity of TrCel7A. PCR-based point mutagenesis or gene synthesis was used to generate the corresponding 9 TrCel7A mutants.
(§2) Cel7A was purified as described in Linger et al., Biotechnol Biofuels 8:45 (2015). Briefly, fermentation broths (˜8 to 10 L) were harvested, vacuum filtered, concentrated, and then loaded onto a 26/10 Phenyl Sepharose Fast Flow column. Buffer A was 20 mM Bis-Tris pH 6.5 and buffer B was 20 mM Bis-Tris pH 6.5, 2.0 M (NH4)2SO4. After binding and washing, a descending gradient of 80% B (1.6 M (NH4)2SO4) to 0% B over eight column volumes was used to elute the bound proteins from the column. Active fractions were identified by a p-nitrophenyl-β-(1-4)-D-lactopyranoside (pNP-L) activity assay. The pNP-L-active fractions were pooled and concentrated as needed. Protein was desalted and exchanged into 20 mM Bis-Tris buffer pH 6.5. […]
(§3) The pNP-L assay was performed by incubating 150 μL of 2 mM pNP-L with 25 μL of sample at 45° C. for 30 minutes. Reactions were quenched with 25 μL of 1 M Na2CO3, and the absorbance at 405 nm was measured. […]

[2] = substrate: [H][C@@]1(O[C@H]2[C@H](O)[C@@H](O)[C@H](Oc3ccc([N+](=O)[O-])cc3)O[C@@H]2CO)O[C@H](CO)[C@H](O)[C@H](O)[C@H]1O; test: pNP-Lactopyranoside (pNP-L) assay, kinetics, TrCel7A 1-11; details: other: TrCel7A 1-11, 45° C., 30 minutes, pNP-L 8 mM-0.133 mM
Text: as §1, §2, §3

[3] = substrate: [H][C@@]1(O[C@H]2[C@H](O)[C@@H](O)[C@H](Oc3ccc([N+](=O)[O-])cc3)O[C@@H]2CO)O[C@H](CO)[C@H](O)[C@H](O)[C@H]1O; test: pNP-Lactopyranoside (pNP-L) assay, kinetics, TrCel7A 11-35a; details: other: TrCel7A 11-35a, 45° C., 30 minutes, pNP-L 8 mM-0.133 mM
Text: as §1, §2, §3

[4] = substrate: [H][C@@]1(O[C@H]2[C@H](O)[C@@H](O)[C@H](Oc3ccc([N+](=O)[O-])cc3)O[C@@H]2CO)O[C@H](CO)[C@H](O)[C@H](O)[C@H]1O; test: pNP-Lactopyranoside (pNP-L) assay, kinetics, TrCel7A 6-87a; details: other: TrCel7A 6-87a, 45° C., 30 minutes, pNP-L 8 mM-0.133 mM
Text: as §1, §2, §3

[5] = substrate: [H][C@@]1(O[C@H]2[C@H](O)[C@@H](O)[C@H](Oc3ccc([N+](=O)[O-])cc3)O[C@@H]2CO)O[C@H](CO)[C@H](O)[C@H](O)[C@H]1O; test: pNP-Lactopyranoside (pNP-L) assay, kinetics, TrCel7A WT; details: other: TrCel7A WT, 45° C., 30 minutes, pNP-L 8 mM-0.133 mM
Procedure: as §2, with “6.5. This sample was then loaded onto a Tricorn 10/100 anion exchange column packed with Source 15Q and eluted with a 0-50% salt gradient over 30 column volumes. Buffers were 20 mM Bis-Tris pH 6.5 (A) and the same supplemented with 1.0 M NaCl (B). pNP-L activity was followed again to identify the active fractions.” for “6.5.”
as §3

[6] = substrate: [H][C@@]1(O[C@H]2[C@H](O)[C@@H](O)[C@H](Oc3ccc([N+](=O)[O-])cc3)O[C@@H]2CO)O[C@H](CO)[C@H](O)[C@H](O)[C@H]1O; test: pNP-Lactopyranoside (pNP-L) assay, kinetics, TrCel7A 2-18c; details: other: TrCel7A 2-18c, 45° C., 30 minutes, pNP-L 8 mM-0.133 mM
Text: as §1, §2, §3

[7] = substrate: [H][C@@]1(O[C@H]2[C@H](O)[C@@H](O)[C@H](Oc3ccc([N+](=O)[O-])cc3)O[C@@H]2CO)O[C@H](CO)[C@H](O)[C@H](O)[C@H]1O; test: pNP-Lactopyranoside (pNP-L) assay, kinetics, TrCel7A 6-53a; details: other: TrCel7A 6-53a, 45° C., 30 minutes, pNP-L 8 mM-0.133 mM
Text: as §1, §2, §3

B1: Trichoderma reesei Cel7A (TrCel7A, SEQ ID NO: 37) variant 1-1d, A241V (with secretion signal) / A224V (without secretion signal) (Trichoderma reesei RUT C-30; … (protein)
chain: QSACTLQSETHPPLTWQKCSSGGTCTQQTGSVVIDANWRWTHATNSSTNCYDGNTWSSTLCPDNETCAKNCCLDGAAYASTYGVTTSGNSLSIGFVTQSAQKNVGARLYLMASDTTYQEFTLLGNEFSFDVDVSQLPCGLNGALYFVSMDADGGVSKYPTNTAGAKYGTGYCDSQCPRDLKFINGQANVEGWEPSSNNANTGIGGHGSCCSEMDIWEANSISEVLTPHPCTTVGQEICEGDGCGGTYSDNRYGGTCDPDGCDWNPYRLGNTSFYGPGSSFTLDTTKKLTVVTQFETSGAINRYYVQNGVTFQQPNAELGSYSGNELNDDYCTAEEAEFGGSSFSDKGGLTQFKKATSGGMVLVMSLWDDYYANMLWLDSTYPTNETSSTPGAVRGSCSTSSGVPAQVESQSPNAKVTFSNIKFGPIGSTGNPSGGNPPGGNPPGTTTTRRPATTTGSSPGPTQSHYGQCGGIGYSGPTVCASGTTCQVLNPYYSQCL
[1]
  kcat: 0.933 ± 0.0667 s⁻¹

B2: Trichoderma reesei Cel7A (TrCel7A, SEQ ID NO: 37) variant 1-11, L366M (with secretion signal) / L349M (without secretion signal) (Trichoderma reesei RUT C-30; … (protein)
chain: B1 chain with V224A, L349M
[2]
  kcat: 0.182 ± 0.00333 s⁻¹

B3: Trichoderma reesei Cel7A (TrCel7A, SEQ ID NO: 37) variant 11-35a, G461D (with secretion signal) / G444D (without secretion signal) (Trichoderma reesei RUT … (protein)
chain: B1 chain with V224A, G444D
[3]
  kcat: 0.183 s⁻¹

B4: Trichoderma reesei Cel7A (TrCel7A, SEQ ID NO: 37) variant 6-87a, D274V (with secretion signal) / D257V (without secretion signal) (Trichoderma reesei RUT C-30; … (protein)
chain: B1 chain with V224A, D257V
[4]
  kcat: 0.4 ± 0.0667 s⁻¹

B5: Trichoderma reesei Cel7A (TrCel7A) wild-type, SEQ ID NO: 37 (Trichoderma reesei RUT C-30) (protein)
chain: B1 chain with V224A
[5]
  kcat: 0.333 ± 0.0167 s⁻¹

B6: Trichoderma reesei Cel7A (TrCel7A, SEQ ID NO: 37) variant 2-18c, T406S/A389V (with secretion signal) / T389S/A372V (without secretion signal) (Trichoderma … (protein)
chain: B1 chain with V224A, A372V, T389S
[6]
  Km: 1980 ± 180 µM
  kcat: 0.467 ± 0.117 s⁻¹

B7: Trichoderma reesei Cel7A (TrCel7A, SEQ ID NO: 37) variant 6-53a, I110M/Y283N/T462I (with secretion signal) / I93M/Y266N/T445I (without secretion signal) … (protein)
chain: B1 chain with I93M, V224A, Y266N, T445I
[7]
  kcat: 0.35 ± 0.05 s⁻¹
